Assay [1] has as its target T1, Human MutSα (MSH2-MSH6 complex), purified (human, UniProt P43246 1-934; P52701 1-1360). Briefly: pull-down.
Assay [2] has as its target T1, Human MutSα (MSH2-MSH6 complex), …. Briefly: co-IP.

T1 sequence (P43246 whole entry, chain 1 of 2): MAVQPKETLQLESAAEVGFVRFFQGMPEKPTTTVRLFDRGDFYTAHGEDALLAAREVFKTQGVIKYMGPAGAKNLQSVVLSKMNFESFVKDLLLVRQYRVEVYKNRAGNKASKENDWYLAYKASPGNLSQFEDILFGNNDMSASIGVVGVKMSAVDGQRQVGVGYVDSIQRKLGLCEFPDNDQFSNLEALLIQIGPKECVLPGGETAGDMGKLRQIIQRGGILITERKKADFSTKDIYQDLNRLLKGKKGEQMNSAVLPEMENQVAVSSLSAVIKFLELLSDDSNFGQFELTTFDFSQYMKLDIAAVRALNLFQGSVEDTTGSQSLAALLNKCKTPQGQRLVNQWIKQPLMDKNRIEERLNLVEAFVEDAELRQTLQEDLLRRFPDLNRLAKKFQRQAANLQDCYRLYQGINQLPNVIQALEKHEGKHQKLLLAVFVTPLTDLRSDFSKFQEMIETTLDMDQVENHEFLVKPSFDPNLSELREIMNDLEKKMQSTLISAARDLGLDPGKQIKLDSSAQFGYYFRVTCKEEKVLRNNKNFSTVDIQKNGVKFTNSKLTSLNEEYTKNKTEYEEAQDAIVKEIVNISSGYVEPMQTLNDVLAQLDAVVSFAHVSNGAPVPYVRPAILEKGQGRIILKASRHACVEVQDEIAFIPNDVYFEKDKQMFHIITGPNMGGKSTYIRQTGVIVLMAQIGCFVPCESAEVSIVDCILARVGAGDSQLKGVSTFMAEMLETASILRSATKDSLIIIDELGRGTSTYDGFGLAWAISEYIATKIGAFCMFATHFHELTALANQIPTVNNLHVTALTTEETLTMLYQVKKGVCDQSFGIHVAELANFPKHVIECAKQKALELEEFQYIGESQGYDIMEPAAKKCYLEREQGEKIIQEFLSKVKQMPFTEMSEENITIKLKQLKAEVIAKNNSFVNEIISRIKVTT
T1 sequence (P52701 whole entry, chain 2 of 2): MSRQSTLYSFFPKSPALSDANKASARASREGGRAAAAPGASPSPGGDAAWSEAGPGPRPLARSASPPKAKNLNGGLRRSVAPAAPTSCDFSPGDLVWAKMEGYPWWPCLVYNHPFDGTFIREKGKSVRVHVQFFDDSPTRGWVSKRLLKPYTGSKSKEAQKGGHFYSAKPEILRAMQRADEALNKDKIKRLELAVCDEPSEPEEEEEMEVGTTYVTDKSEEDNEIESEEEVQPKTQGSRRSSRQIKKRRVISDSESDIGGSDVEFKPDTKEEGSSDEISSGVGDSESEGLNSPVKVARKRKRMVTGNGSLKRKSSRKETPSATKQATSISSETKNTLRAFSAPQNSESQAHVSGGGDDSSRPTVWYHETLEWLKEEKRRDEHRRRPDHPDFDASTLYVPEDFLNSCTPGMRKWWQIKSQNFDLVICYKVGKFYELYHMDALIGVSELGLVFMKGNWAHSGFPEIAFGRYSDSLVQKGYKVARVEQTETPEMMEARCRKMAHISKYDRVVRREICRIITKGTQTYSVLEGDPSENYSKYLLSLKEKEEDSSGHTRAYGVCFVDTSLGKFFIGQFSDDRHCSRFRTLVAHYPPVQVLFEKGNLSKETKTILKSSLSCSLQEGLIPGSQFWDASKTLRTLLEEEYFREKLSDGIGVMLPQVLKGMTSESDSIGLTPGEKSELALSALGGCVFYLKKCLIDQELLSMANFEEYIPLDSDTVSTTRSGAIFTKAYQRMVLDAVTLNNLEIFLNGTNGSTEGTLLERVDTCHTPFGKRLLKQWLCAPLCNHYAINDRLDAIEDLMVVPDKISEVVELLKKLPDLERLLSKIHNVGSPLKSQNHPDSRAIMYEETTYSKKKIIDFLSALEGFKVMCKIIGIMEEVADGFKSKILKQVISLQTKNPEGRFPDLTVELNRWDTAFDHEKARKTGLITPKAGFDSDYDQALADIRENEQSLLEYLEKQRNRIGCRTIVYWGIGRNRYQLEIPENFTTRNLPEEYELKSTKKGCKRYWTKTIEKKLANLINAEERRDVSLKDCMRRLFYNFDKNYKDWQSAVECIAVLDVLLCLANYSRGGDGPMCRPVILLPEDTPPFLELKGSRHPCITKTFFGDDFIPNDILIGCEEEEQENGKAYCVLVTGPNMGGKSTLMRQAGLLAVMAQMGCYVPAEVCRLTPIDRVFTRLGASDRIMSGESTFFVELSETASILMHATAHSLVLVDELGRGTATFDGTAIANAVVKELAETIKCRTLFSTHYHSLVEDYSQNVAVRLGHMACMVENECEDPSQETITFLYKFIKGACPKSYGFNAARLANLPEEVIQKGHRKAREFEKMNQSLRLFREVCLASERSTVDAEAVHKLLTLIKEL

B1: GST-Flag-Orc6 middle TFIIB (TFIIB-B) domain (94-187) (domain or fragment, human, UniProt Q9Y5N6 94-187, looked up)
chain: SNIGIRDLAVQFSCIEAVNMASKILKSYESSLPQTQQVDLDLSRPLFTSAALLSACKILKLKVDKNKMVATSGVKKAIFDRLCKQLEKIGQQVD
B1: in assay [1], the binding result is given as “binds”.

B2: Human GST-Flag-Orc6, full length (natural protein, UniProt Q9Y5N6 1-252, looked up)
chain: MGSELIGRLAPRLGLAEPDMLRKAEEYLRLSRVKCVGLSARTTETSSAVMCLDLAASWMKCPLDRAYLIKLSGLNKETYQSCLKSFECLLGLNSNIGIRDLAVQFSCIEAVNMASKILKSYESSLPQTQQVDLDLSRPLFTSAALLSACKILKLKVDKNKMVATSGVKKAIFDRLCKQLEKIGQQVDREPGDVATPPRKRKKIVVEAPAKEMEKVEEMPHKPQKDEDLTQDYEEWKRKILENAASAQKATAE
Turning to B2, the binding result in assay [1] is on record as “binds”.

B3: Human Flag-MutLα (MLH1-PMS2 complex), purified (complex)
chain 1: MSFVAGVIRRLDETVVNRIAAGEVIQRPANAIKEMIENCLDAKSTSIQVIVKEGGLKLIQIQDNGTGIRKEDLDIVCERFTTSKLQSFEDLASISTYGFRGEALASISHVAHVTITTKTADGKCAYRASYSDGKLKAPPKPCAGNQGTQITVEDLFYNIATRRKALKNPSEEYGKILEVVGRYSVHNAGISFSVKKQGETVADVRTLPNASTVDNIRSIFGNAVSRELIEIGCEDKTLAFKMNGYISNANYSVKKCIFLLFINHRLVESTSLRKAIETVYAAYLPKNTHPFLYLSLEISPQNVDVNVHPTKHEVHFLHEESILERVQQHIESKLLGSNSSRMYFTQTLLPGLAGPSGEMVKSTTSLTSSSTSGSSDKVYAHQMVRTDSREQKLDAFLQPLSKPLSSQPQAIVTEDKTDISSGRARQQDEEMLELPAPAEVAAKNQSLEGDTTKGTSEMSEKRGPTSSNPRKRHREDSDVEMVEDDSRKEMTAACTPRRRIINLTSVLSLQEEINEQGHEVLREMLHNHSFVGCVNPQWALAQHQTKLYLLNTTKLSEELFYQILIYDFANFGVLRLSEPAPLFDLAMLALDSPESGWTEEDGPKEGLAEYIVEFLKKKAEMLADYFSLEIDEEGNLIGLPLLIDNYVPPLEGLPIFILRLATEVNWDEEKECFESLSKECAMFYSIRKQYISEESTLSGQQSEVPGSIPNSWKWTVEHIVYKALRSHILPPKHFTEDGNILQLANLPDLYKVFERC
chain 2: MERAESSSTEPAKAIKPIDRKSVHQICSGQVVLSLSTAVKELVENSLDAGATNIDLKLKDYGVDLIEVSDNGCGVEEENFEGLTLKHHTSKIQEFADLTQVETFGFRGEALSSLCALSDVTISTCHASAKVGTRLMFDHNGKIIQKTPYPRPRGTTVSVQQLFSTLPVRHKEFQRNIKKEYAKMVQVLHAYCIISAGIRVSCTNQLGQGKRQPVVCTGGSPSIKENIGSVFGQKQLQSLIPFVQLPPSDSVCEEYGLSCSDALHNLFYISGFISQCTHGVGRSSTDRQFFFINRRPCDPAKVCRLVNEVYHMYNRHQYPFVVLNISVDSECVDINVTPDKRQILLQEEKLLLAVLKTSLIGMFDSDVNKLNVSQQPLLDVEGNLIKMHAADLEKPMVEKQDQSPSLRTGEEKKDVSISRLREAFSLRHTTENKPHSPKTPEPRRSPLGQKRGMLSSSTSGAISDKGVLRPQKEAVSSSHGPSDPTDRAEVEKDSGHGSTSVDSEGFSIPDTGSHCSSEYAASSPGDRGSQEHVDSQEKAPKTDDSFSDVDCHSNQEDTGCKFRVLPQPTNLATPNTKRFKKEEILSSSDICQKLVNTQDMSASQVDVAVKINKKVVPLDFSMSSLAKRIKQLHHEAQQSEGEQNYRKFRAKICPGENQAAEDELRKEISKTMFAEMEIIGQFNLGFIITKLNEDIFIVDQHATDEKYNFEMLQQHTVLQGQRLIAPQTLNLTAVNEAVLIENLEIFRKNGFDFVIDENAPVTERAKLISLPTSKNWTFGPQDVDELIFMLSDSPGVMCRPSRVKQMFASRACRKSVMIGTALNTSEMKKLITHMGEMDHPWNCPHGRPTMRHIANLGVISQN
In the case of B3, the binding result in assay [2] was “binds”.

Source of the values: paper doi:10.1101/2021.05.10.443400 (bioRxiv, 2021).
